Experimental data from US20110081663A1 (KYOTO UNIVERSITY, published 2011).

Target: molecular probe of the formula (11) (SEQ ID NO. 11), exendin-4(1-39)-Lys40 with the Lys40 side chain labeled …
Test: ex vivo autoradiography of pancreas sections of MIP-GFP mice after i.v. injection; radioactivity co-localised with the GFP signal of beta-cells

B1: GLP-1 receptors of the pancreatic beta-cells (MIP-GFP mice) (receptor)
chain: GPRPQGTTVSLSETVQKWREYRRQCQRFLTEAPLLATGLFCNRTFDDYACWPDGPPGSFVNVSCPWYLPWASSVLQGHVYRFCTAEGLWLHKDNSSLPWRDLSECEESKRGERNFPEEQLLSLYIIYTVGYALSFSALVIASAILVGFRHLHCTRNYIHLNLFASFILRALSVFIKDAALKWMYSTAAQQHQWDGLLSYQDSLGCRLVFLLMQYCVAANYYWLLVEGVYLYTLLAFSVFSEQRIFKLYLSIGWGVPLLFVIPWGIVKYLYEDEGCWTRNSNMNYWLIIRLPILFAIGVNFLIFIRVICIVVSKLKANLMCKTDIKCRLAKSTLTLIPLLGTHEVIFAFVMDEHARGTLRFIKLFTELSFTSFQGLMVAILYCFVNNEVQMEFRKCWERWRLEHLNIQRDCSMKPLKCPTSSVSSGATVGSSVYAATCQSSYS
notes: whole, on cells; Endogenous receptor in mouse pancreas; also called glucagon-like peptide-1 receptor
**Q.** Does B1 bind?
**A.** binds
